Target: the molecule itself
Assay: SEC-MALS; Superdex 200 Increase 10/300, 0.8 ml/min; 65 µl of ~3 mg/ml or 100 μM per monomer loaded; 20 mM Tris-HCl pH 7.5, 150 mM NaCl, 5 mM βME, 3 mM NaN3; samples before preparative SEC; self-association, monomers to dimer (small tetramer peak for six isoforms)

B1: Arabidopsis thaliana 14-3-3 omicron (natural protein, UniProt Q9S9Z8 1-252, looked up)
chain: MENERAKQVYLAKLNEQAERYDEMVEAMKKVAALDVELTIEERNLLSVGYKNVIGARRASWRILSSIEQKEESKGNEQNAKRIKDYRTKVEEELSKICYDILAVIDKHLVPFATSGESTVFYYKMKGDYFRYLAEFKSGADREEAADLSLKAYEAATSSASTELSTTHPIRLGLALNFSVFYYEILNSPERACHLAKRAFDEAIAELDSLNEDSYKDSTLIMQLLRDNLTLWTSDLEEGGEQSKGHNQQDEN
notes: 14-3-3 omicron, Arabidopsis thaliana, epsilon group; construct provided by Prof; Robert J. Ferl; source: E. coli C41(DE3), purified (IMAC, thrombin cleavage of the His6-tag, subtractive IMAC, preparative SEC; aliquots before preparative SEC for SEC-MALS)
stoichiometry N: 2
